Results on two proteins are retold here after paper PMC8125816, “Relative Importance of Soluble and Microsomal Epoxide Hydrolases for the Hydrolysis of Epoxy-Fatty Acids in Human Tissues” (International Journal of Molecular Sciences, 2021).

Common to all, as to test: LC/MS-MS of diol formed
Common to all, as to assay type: biochemical, Homo sapiens

Substrate in series [1]: CC/C=C\C/C=C\CC1OC1C/C=C\C/C=C\C/C=C\CCC(=O)O
The settings on record: Tris/HCl 0.1 M pH 9.0, 0.1 mg/mL BSA, 37 °C. An excerpt:
(§1) LC/MS-MS of diol formed on mEH

Substrate in series [2]: CCCCC/C=C\C/C=C\CC1OC1C/C=C\CCCC(=O)O
The settings on record: Tris/HCl 0.1 M pH 9.0, 0.1 mg/mL BSA, 37 °C.
Excerpt: as §1

Substrate in series [3]: CCCCC/C=C\C[C@@H]1O[C@H]1/C=C/C(O)C/C=C\CCCC(=O)O
The settings on record: Tris/HCl 0.1 M pH 9.0, 0.1 mg/mL BSA, 37 °C.
Excerpt: as §1

Substrate in series [4]: CCCCCC1OC1C/C=C\C/C=C\C/C=C\CCCC(=O)O
The settings on record: Tris/HCl 0.1 M pH 9.0, 0.1 mg/mL BSA, 37 °C.
Excerpt: as §1

Substrate in series [5]: CC/C=C\C/C=C\CC1OC1C/C=C\C/C=C\C/C=C\CCC(=O)O
The settings on record: sodium phosphate 0.1 M pH 7.4, 0.1 mg/mL BSA, 37 °C, crude membrane extract. The source says: (§2) LC/MS-MS of diol formed on EH3

Substrate in series [6]: CCCCC/C=C\C/C=C\CC1OC1C/C=C\CCCC(=O)O
The settings on record: sodium phosphate 0.1 M pH 7.4, 0.1 mg/mL BSA, 37 °C, crude membrane extract.
Excerpt: as §2

Substrate in series [7]: CCCCC/C=C\C[C@@H]1O[C@H]1/C=C/C(O)C/C=C\CCCC(=O)O
The settings on record: sodium phosphate 0.1 M pH 7.4, 0.1 mg/mL BSA, 37 °C, crude membrane extract.
Excerpt: as §2

Substrate in series [8]: CCCCCC1OC1C/C=C\C/C=C\C/C=C\CCCC(=O)O
The settings on record: sodium phosphate 0.1 M pH 7.4, 0.1 mg/mL BSA, 37 °C, crude membrane extract.
Excerpt: as §2

B1: mEH (Homo sapiens) (protein)
chain: MWLEILLTSVLGFAIYWFISRDKEETLPLEDGWWGPGTRSAAREDDSIRPFKVETSDEEIHDLHQRIDKFRFTPPLEDSCFHYGFNSNYLKKVISYWRNEFDWKKQVEILNRYPHFKTKIEGLDIHFIHVKPPQLPAGHTPKPLLMVHGWPGSFYEFYKIIPLLTDPKNHGLSDEHVFEVICPSIPGYGFSEASSKKGFNSVATARIFYKLMLRLGFQEFYIQGGDWGSLICTNMAQLVPSHVKGLHLNMALVLSNFSTLTLLLGQRFGRFLGLTERDVELLYPVKEKVFYSLMRESGYMHIQCTKPDTVGSALNDSPVGLAAYILEKFSTWTNTEFRYLEDGGLERKFSLDDLLTNVMLYWTTGTIISSQRFYKENLGQGWMTQKHERMKVYVPTGFSAFPFELLHTPEKWVRFKYPKLISYSYMVRGGHFAAFEEPELLAQDIRKFLSVLERQ
B1: the Km in “LC/MS-MS of diol formed [1]” is 2.9 ± 0.4 µM; in “LC/MS-MS of diol formed [2]”, 2.5 ± 0.6 µM; in the series “LC/MS-MS of diol formed [3]”, 51 ± 14 µM; in the series “LC/MS-MS of diol formed [4]”, 80 ± 6 µM. For the same protein, the Vmax worked out at 0.445 µmol/min/mg in “LC/MS-MS of diol formed [1]”, 0.038 µmol/min/mg in “LC/MS-MS of diol formed [2]”, 0.023 µmol/min/mg in the series “LC/MS-MS of diol formed [3]” and 0.053 µmol/min/mg in the series “LC/MS-MS of diol formed [4]”. Further, the kcat in “LC/MS-MS of diol formed [1]” is 0.37 ± 0.01 s⁻¹; in “LC/MS-MS of diol formed [2]”, 0.032 ± 0.002 s⁻¹; in the series “LC/MS-MS of diol formed [3]” it was 0.019 ± 0.003 s⁻¹; in the series “LC/MS-MS of diol formed [4]”, 0.044 ± 0.003 s⁻¹. Also, the catalytic efficiency (kcat/Km) in the series “LC/MS-MS of diol formed [1]” was found to be 130000 ± 20000 M⁻¹ s⁻¹; in the series “LC/MS-MS of diol formed [2]”, 13000 ± 1000 M⁻¹ s⁻¹; in the series “LC/MS-MS of diol formed [3]”, 370 ± 60 M⁻¹ s⁻¹; in “LC/MS-MS of diol formed [4]”, 550 ± 10 M⁻¹ s⁻¹.

B2: EH3 (Homo sapiens) (protein)
chain: MPELVVTALLAPSRLSLKLLRAFMWSLVFSVALVAAAVYGCIALTHVLCRPRRGCCGRRRSASPACLSDPSLGEHGFLNLKSSGLRLHYVSAGRGNGPLMLFLHGFPENWFSWRYQLREFQSRFHVVAVDLRGYGPSDAPRDVDCYTIDLLLVDIKDVILGLGYSKCILVAHDWGALLAWHFSIYYPSLVERMVVVSGAPMSVYQDYSLHHISQFFRSHYMFLFQLPWLPEKLLSMSDFQILKTTLTHRKTGIPCLTPSELEAFLYNFSQPGGLTGPLNYYRNLFRNFPLEPQELTTPTLLLWGEKDTYLELGLVEAIGSRFVPGRLEAHILPGIGHWIPQSNPQEMHQYMWAFLQDLLD
On to B2, for which the Michaelis constant (Km) was determined as 4.3 ± 1.2 µM in the series “LC/MS-MS of diol formed [5]”, 10 ± 0.5 µM in the series “LC/MS-MS of diol formed [6]”, 14 ± 1 µM in “LC/MS-MS of diol formed [7]” and 76 ± 16 µM in “LC/MS-MS of diol formed [8]”. Moreover, the Vmax in the series “LC/MS-MS of diol formed [5]” was determined as 0.121 µmol/min/mg; in “LC/MS-MS of diol formed [6]”, 0.044 µmol/min/mg; in “LC/MS-MS of diol formed [7]”, 0.017 µmol/min/mg; in “LC/MS-MS of diol formed [8]”, 0.027 µmol/min/mg. Moreover, the kcat in “LC/MS-MS of diol formed [5]” was found to be 0.08 ± 0.01 s⁻¹; in “LC/MS-MS of diol formed [6]”, 0.03 ± 0.001 s⁻¹; in the series “LC/MS-MS of diol formed [7]”, 0.014 ± 0.001 s⁻¹; in “LC/MS-MS of diol formed [8]” it was 0.018 ± 0.003 s⁻¹. Besides, the kcat/Km in the series “LC/MS-MS of diol formed [5]” is 19000 ± 3000 M⁻¹ s⁻¹; in the series “LC/MS-MS of diol formed [6]”, 3000 ± 200 M⁻¹ s⁻¹; in “LC/MS-MS of diol formed [7]”, 1010 ± 30 M⁻¹ s⁻¹; in “LC/MS-MS of diol formed [8]”, 240 ± 10 M⁻¹ s⁻¹.
